Source: patent US20110201130A1

Legend:
[1] = target: human B-type natriuretic peptide (human); assay: sandwich CMIA, capture 106.3 AM1, hBNP 0 pg/mL (blank)
[2] = target: human B-type natriuretic peptide (human); assay: sandwich CMIA, capture 106.3 AM1, hBNP 1000 pg/mL (288.7 pM)
[3] = target: human pro B-type natriuretic peptide (human); assay: sandwich CMIA, capture BNP 3-631-436 ms, proBNP spike 1031 pg/mL, read off hBNP curve
[4] = target: human B-type natriuretic peptide (human); assay: sandwich CMIA, capture BNP 3-631-436 ms, hBNP 150 pg/mL (43.3 pM)
[5] = target: human pro B-type natriuretic peptide (human); assay: sandwich CMIA, capture 106.3AM1, proBNP spike 6872 pg/mL, read off hBNP curve
[6] = target: human B-type natriuretic peptide (human); assay: sandwich CMIA, capture 106.3 AM1, hBNP 2000 pg/mL (577.4 pM)
[7] = target: human pro B-type natriuretic peptide (human); assay: sandwich CMIA, capture BNP 3-631-436 ms, proBNP spike 515 pg/mL, read off hBNP curve
[8] = target: human pro B-type natriuretic peptide (human); assay: sandwich CMIA, capture BNP 3-631-436 ms, proBNP spike 103 pg/mL, read off hBNP curve
[9] = target: human pro B-type natriuretic peptide (human); assay: sandwich CMIA, capture BNP 3-631-436 ms, proBNP spike 6872 pg/mL, read off hBNP curve
[10] = target: human B-type natriuretic peptide (human); assay: sandwich CMIA, capture 106.3 AM1, hBNP 150 pg/mL (43.3 pM)
[11] = target: human B-type natriuretic peptide (human); assay: sandwich CMIA, capture BNP 3-631-436 ms, hBNP 0 pg/mL (blank)
[12] = target: human B-type natriuretic peptide (human); assay: sandwich CMIA, capture BNP 3-631-436 ms, hBNP 1000 pg/mL (288.7 pM)
[13] = target: human B-type natriuretic peptide (human); assay: sandwich CMIA, capture BNP 3-631-436 ms, hBNP 30 pg/mL (8.67 pM)
[14] = target: human pro B-type natriuretic peptide (human); assay: sandwich CMIA, capture 106.3AM1, proBNP spike 3436 pg/mL, read off hBNP curve
[15] = target: human B-type natriuretic peptide (human); assay: sandwich CMIA, capture BNP 3-631-436 ms, hBNP 300 pg/mL (86.6 pM)
[16] = target: human pro B-type natriuretic peptide (human); assay: sandwich CMIA, capture 106.3AM1, proBNP spike 515 pg/mL, read off hBNP curve
[17] = target: human pro B-type natriuretic peptide (human); assay: sandwich CMIA, capture 106.3AM1, proBNP spike 1031 pg/mL, read off hBNP curve
[18] = target: human B-type natriuretic peptide (human); assay: sandwich CMIA, capture 106.3 AM1, hBNP 30 pg/mL (8.67 pM)
[19] = target: human pro B-type natriuretic peptide (human); assay: sandwich CMIA, capture BNP 3-631-436 ms, proBNP spike 3436 pg/mL, read off hBNP curve
[20] = target: human B-type natriuretic peptide (human); assay: sandwich CMIA, capture 106.3 AM1, hBNP 300 pg/mL (86.6 pM)
[21] = target: human B-type natriuretic peptide (human); assay: sandwich CMIA, capture BNP 3-631-436 ms, hBNP 2000 pg/mL (577.4 pM)
[22] = target: human pro B-type natriuretic peptide (human); assay: sandwich CMIA, capture 106.3AM1, proBNP spike 103 pg/mL, read off hBNP curve

Chain of human pro B-type natriuretic peptide (human) (chain, as listed by the source): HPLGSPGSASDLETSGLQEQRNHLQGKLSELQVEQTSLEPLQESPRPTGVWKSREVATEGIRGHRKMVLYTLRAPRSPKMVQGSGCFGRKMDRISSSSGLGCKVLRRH
Chain of human B-type natriuretic peptide (human) (peptide, as listed by the source): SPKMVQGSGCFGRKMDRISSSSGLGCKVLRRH

monoclonal antibody BC203
RLU [1]: 768 RLU | RLU [2]: 65500 RLU | Readback [3]: 111 pg/mL | Recovery [3]: 14.8% | RLU [4]: 4690 RLU | Readback [5]: 2830 pg/mL | Recovery [5]: 41.2% | RLU [6]: 223000 RLU | Readback [7]: 40.8 pg/mL | Recovery [7]: 10.9% | Readback [8]: -5.3 pg/mL | Recovery [8]: -7% | Readback [9]: 895 pg/mL | Recovery [9]: 17.9% | RLU [10]: 3850 RLU | RLU [11]: 803 RLU | RLU [12]: 83500 RLU | RLU [13]: 1340 RLU | Readback [14]: 1370 pg/mL | Recovery [14]: 39.7% | RLU [15]: 11900 RLU | Readback [16]: 190 pg/mL | Recovery [16]: 36.8% | Readback [17]: 456 pg/mL | Recovery [17]: 44.2% | RLU [18]: 1030 RLU | Readback [19]: 482 pg/mL | Recovery [19]: 19.3% | RLU [20]: 8760 RLU | RLU [21]: 270000 RLU | Readback [22]: 117 pg/mL | Recovery [22]: 114%
